# Assay results published in article PMC8732845, “Novel interaction between neurotrophic factor-α1/carboxypeptidase E and serotonin receptor, 5-HTR1E, protects human neurons against oxidative/neuroexcitotoxic stress via β-arrestin/ERK signaling” (Cellular and Molecular Life Sciences: CMLS, 2021).
# B1: Recombinant mouse NF-α1/CPE (neurotrophic factor-α1/carboxypeptidase E), unlabeled (ligand)
# chain: not shown
# Molecular target: 5-hydroxytryptamine receptor 1-E (5-HTR1E) on stably transfected HEK293 cells (human, UniProt P28566 1-365)
# Assay: cell-based or functional assay
# 5-hydroxytryptamine receptor 1-E (5-HTR1E) on stably transfected HEK293 cells, sequence (P28566 whole entry): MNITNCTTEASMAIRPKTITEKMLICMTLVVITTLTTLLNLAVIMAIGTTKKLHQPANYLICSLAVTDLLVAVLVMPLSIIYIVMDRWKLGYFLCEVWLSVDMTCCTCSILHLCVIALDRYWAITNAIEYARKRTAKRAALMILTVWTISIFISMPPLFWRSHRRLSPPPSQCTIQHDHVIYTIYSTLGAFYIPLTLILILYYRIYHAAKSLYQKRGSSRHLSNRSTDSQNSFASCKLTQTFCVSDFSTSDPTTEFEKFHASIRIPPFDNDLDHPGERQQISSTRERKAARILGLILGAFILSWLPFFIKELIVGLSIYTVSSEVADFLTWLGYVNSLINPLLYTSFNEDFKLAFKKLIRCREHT
binder,measurement,value
B1,"CREB phosphorylation (Western blot, pCREB/tCREB) in 5-HTR1E stable cells, 50 nM NF-α1/CPE, 10–60 min (value after 20 min); not in control HEK293 cells",1.3 fold
same,"phosphorylation of ERK 1/2 (Western blot, pERK/tERK) in 5-HTR1E stable HEK293 cells, 0–50 nM NF-α1/CPE for 5–15 min; not in control HEK293 cells",3.4 fold
